Nine molecules from paper PMC2172640 (The Journal of Cell Biology, 2003) can be followed below.

The assay concerns the target T1, HA95 (human (endogenous in Bjab and HeLa), UniProt Q9ULX6 1-646).
T1 sequence (looked up): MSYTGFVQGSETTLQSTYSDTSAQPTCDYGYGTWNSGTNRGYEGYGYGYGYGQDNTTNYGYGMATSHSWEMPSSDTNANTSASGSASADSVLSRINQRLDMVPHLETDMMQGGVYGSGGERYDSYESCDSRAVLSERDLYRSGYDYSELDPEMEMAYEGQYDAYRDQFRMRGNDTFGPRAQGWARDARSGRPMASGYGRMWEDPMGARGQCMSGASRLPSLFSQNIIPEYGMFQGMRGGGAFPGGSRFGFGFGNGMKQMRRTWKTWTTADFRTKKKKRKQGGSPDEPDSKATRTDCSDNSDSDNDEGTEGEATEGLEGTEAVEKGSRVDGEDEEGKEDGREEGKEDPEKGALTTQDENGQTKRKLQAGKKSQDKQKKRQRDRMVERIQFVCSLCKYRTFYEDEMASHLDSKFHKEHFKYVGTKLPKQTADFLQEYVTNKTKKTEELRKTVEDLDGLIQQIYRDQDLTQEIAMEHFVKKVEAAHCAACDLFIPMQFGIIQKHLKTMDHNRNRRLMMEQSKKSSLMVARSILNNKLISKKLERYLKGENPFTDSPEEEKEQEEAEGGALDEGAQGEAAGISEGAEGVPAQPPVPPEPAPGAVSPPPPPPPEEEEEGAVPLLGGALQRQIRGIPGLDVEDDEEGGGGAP
The experiment in a line: far-Western, overlay or dot blot.

B1: GST–LAP2β(1–452) (domain or fragment, UniProt Q62733 1-452, looked up)
chain: MPEFLEDPSVLTKDKLKSELVANNVTLPAGEQRKDVYVQLYLQHLTARNRPPLAAGANSKGPPDFSSDEEREPTPVLGSGASVGRGRGAVGRKATKKTDKPRPEDKDDLDVTELSNEELLEQLVRYGVNPGPIVGTTRKLYEKKLLKLREQGAESRSSTPLPTVSSSAENTRQNGSNDSDRYSDNDEDSKIELKLEKREPLKGRAKTPVTLKQRRIEHNQSYSEAGVTETEWTSGSSKGGPLQALTRESTRGSRRTPRRRVEPSQHFRVDGAVISESTPIAETIKASSNDSLVANRLTGNFKHASSILPITEFSDITRRTPKKPLTRAEVGEKTEERRVERDILKEMFPYEASTPTGISASCRRPIKGAAGRPLELSDFRMEESFSSKYVPKYVPLADVKSEKTKKGRSVPMWIKMLLFALVAGFLFLVYQAMETNQGNPFTNFLQDTKISN
With B1, the binding result is listed as “binds”.

B2: GST–LAP2β(243–397) (domain or fragment, UniProt Q62733 243-397, looked up)
chain: QALTRESTRGSRRTPRRRVEPSQHFRVDGAVISESTPIAETIKASSNDSLVANRLTGNFKHASSILPITEFSDITRRTPKKPLTRAEVGEKTEERRVERDILKEMFPYEASTPTGISASCRRPIKGAAGRPLELSDFRMEESFSSKYVPKYVPLA
Take B2: the binding result was “binds”.

B3: GST–LAP2β(137–298) (domain or fragment, UniProt Q62733 137-298, looked up)
chain: TRKLYEKKLLKLREQGAESRSSTPLPTVSSSAENTRQNGSNDSDRYSDNDEDSKIELKLEKREPLKGRAKTPVTLKQRRIEHNQSYSEAGVTETEWTSGSSKGGPLQALTRESTRGSRRTPRRRVEPSQHFRVDGAVISESTPIAETIKASSNDSLVANRLT
On to B3, for which the binding result is “binds”.

B4: GST–LAP2β(1–298) (domain or fragment, UniProt Q62733 1-298, looked up)
chain: MPEFLEDPSVLTKDKLKSELVANNVTLPAGEQRKDVYVQLYLQHLTARNRPPLAAGANSKGPPDFSSDEEREPTPVLGSGASVGRGRGAVGRKATKKTDKPRPEDKDDLDVTELSNEELLEQLVRYGVNPGPIVGTTRKLYEKKLLKLREQGAESRSSTPLPTVSSSAENTRQNGSNDSDRYSDNDEDSKIELKLEKREPLKGRAKTPVTLKQRRIEHNQSYSEAGVTETEWTSGSSKGGPLQALTRESTRGSRRTPRRRVEPSQHFRVDGAVISESTPIAETIKASSNDSLVANRLT
As for B4, the binding result is “binds”.

B5: GST–LAP2β(1–397) (domain or fragment, UniProt Q62733 1-397, looked up)
chain: MPEFLEDPSVLTKDKLKSELVANNVTLPAGEQRKDVYVQLYLQHLTARNRPPLAAGANSKGPPDFSSDEEREPTPVLGSGASVGRGRGAVGRKATKKTDKPRPEDKDDLDVTELSNEELLEQLVRYGVNPGPIVGTTRKLYEKKLLKLREQGAESRSSTPLPTVSSSAENTRQNGSNDSDRYSDNDEDSKIELKLEKREPLKGRAKTPVTLKQRRIEHNQSYSEAGVTETEWTSGSSKGGPLQALTRESTRGSRRTPRRRVEPSQHFRVDGAVISESTPIAETIKASSNDSLVANRLTGNFKHASSILPITEFSDITRRTPKKPLTRAEVGEKTEERRVERDILKEMFPYEASTPTGISASCRRPIKGAAGRPLELSDFRMEESFSSKYVPKYVPLA
For B5, the binding result is “binds”.

B6: GST–LAP2β(243–373) (domain or fragment, UniProt Q62733 243-373, looked up)
chain: QALTRESTRGSRRTPRRRVEPSQHFRVDGAVISESTPIAETIKASSNDSLVANRLTGNFKHASSILPITEFSDITRRTPKKPLTRAEVGEKTEERRVERDILKEMFPYEASTPTGISASCRRPIKGAAGRP
Turning to B6, the binding result is recorded as “binds”.

B7: GST–LAP2β(299–373) (domain or fragment, UniProt Q62733 299-373, looked up)
chain: GNFKHASSILPITEFSDITRRTPKKPLTRAEVGEKTEERRVERDILKEMFPYEASTPTGISASCRRPIKGAAGRP
In the case of B7, the binding result is given as “binds”.

B8: GST–LAP2β(137–373) (domain or fragment, UniProt Q62733 137-373, looked up)
chain: TRKLYEKKLLKLREQGAESRSSTPLPTVSSSAENTRQNGSNDSDRYSDNDEDSKIELKLEKREPLKGRAKTPVTLKQRRIEHNQSYSEAGVTETEWTSGSSKGGPLQALTRESTRGSRRTPRRRVEPSQHFRVDGAVISESTPIAETIKASSNDSLVANRLTGNFKHASSILPITEFSDITRRTPKKPLTRAEVGEKTEERRVERDILKEMFPYEASTPTGISASCRRPIKGAAGRP
Regarding B8, the binding result is listed as “binds”.

B9: GST–LAP2β(299–397) (domain or fragment, UniProt Q62733 299-397, looked up)
chain: GNFKHASSILPITEFSDITRRTPKKPLTRAEVGEKTEERRVERDILKEMFPYEASTPTGISASCRRPIKGAAGRPLELSDFRMEESFSSKYVPKYVPLA
Regarding B9, the binding result is “binds”.
